Measured values reported in patent US6872803 (Kyowa Kirin, dated 2005).
[ ]: non-standard residue; d: D form.

How the values were obtained:
[1] = target: T1, protein-farnesyltransferase derived from bovine brains (bovine, UniProt P29702 2-375; P49355 1-437); assay: cell-based or functional assay
[2] = target: T1, protein-farnesyltransferase derived …; assay: cell-based or functional assay; remark: listed apart in the source
[3] = target: T2, Bovine lung-derived ANP receptor (bovine); assay: displacement of 125I-rat ANP from bovine lung membrane fraction, filter binding
T2 chain: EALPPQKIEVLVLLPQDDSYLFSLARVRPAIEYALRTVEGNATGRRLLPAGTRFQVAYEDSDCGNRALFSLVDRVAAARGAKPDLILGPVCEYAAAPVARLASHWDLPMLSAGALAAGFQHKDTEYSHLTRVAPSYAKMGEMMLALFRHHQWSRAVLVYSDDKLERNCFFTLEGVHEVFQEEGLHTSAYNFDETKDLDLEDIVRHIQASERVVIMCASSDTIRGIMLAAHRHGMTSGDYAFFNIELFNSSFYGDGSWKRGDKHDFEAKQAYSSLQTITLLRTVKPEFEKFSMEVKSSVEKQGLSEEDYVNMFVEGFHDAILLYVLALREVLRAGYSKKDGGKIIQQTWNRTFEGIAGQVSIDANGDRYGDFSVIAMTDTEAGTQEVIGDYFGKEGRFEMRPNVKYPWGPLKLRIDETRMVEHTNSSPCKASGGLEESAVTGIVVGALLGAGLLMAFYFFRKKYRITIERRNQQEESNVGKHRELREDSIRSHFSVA

B1: Compound (d), H-Ser-Met-Gly-Leu-Pro-Cys-Val-Val-Met-OH (peptide)
peptide: H-SMGLPCVVM-OH
B1 was tested, and the “IC50 (µM), transfer of [3H]-farnesyl diphosphate to Ras protein (v-Ki-Ras p21)” value (“IC50 (µM), transfer” for short) [1] was 1.6 µM and the “IC50 (µM), intake of [3H]-farnesyl diphosphate by biotin-lamin-B peptide (SPA enzyme assay kit)” value [2] was 1.2 µM.

B2: Compound (e), H-Ser-Ser-Gly-Cys-Val-Leu-Ser-OH (peptide)
peptide: H-SSGCVLS-OH
For B2, the “IC50 (µM), transfer” value [1] was 10 µM.

B3: Compound (f), H-Ser-Met-Gly-Leu-Pro-Cys-Ile-Phe-Met-OH (peptide)
peptide: H-SMGLPCIFM-OH
In the case of B3, the “IC50 (µM), transfer” value [1] is reported as 21 µM.

B4: Compound (g), H-Phe-Gly-Gly-Arg-Ile-Asp-Arg-Ile-NH2 (peptide)
peptide: H-FGGRIDRI-NH2
With B4 the IC50 [3] was 3.5 nM.

B5: Compound (h), H-Ala-Phe-Gly-Gly-Arg-Ile-Asp-Arg-Ile-Gly-Ala-Ala-NH2 (peptide)
peptide: H-AFGGRIDRIGAA-NH2
Work on B5 yielded an IC50 [3] of 2.5 nM.

B6: Compound (i), H-Phe-Gly-Gly-D-Arg-Ile-Asp-Arg-Ile-NH2 (peptide)
peptide: H-FGG[dR]IDRI-NH2
SMILES: CC[C@H](C)[C@H](NC(=O)[C@H](CCCNC(=N)N)NC(=O)[C@H](CC(=O)O)NC(=O)[C@@H](NC(=O)[C@@H](CCCNC(=N)N)NC(=O)CNC(=O)CNC(=O)[C@@H](N)Cc1ccccc1)[C@@H](C)CC)C(N)=O
B6 gave an IC50 [3] of 210 nM.
